The text below walks through data of PMC8120272, “Heterologous Expression and Biochemical Characterization of the Human Zinc Transporter 1 (ZnT1) and Its Soluble C-Terminal Domain” (Frontiers in Chemistry, 2021).

The series concerns the molecule itself. As to the kind of experiment: SEC-SAXS (small-angle X-ray scattering); in-line SEC-SAXS with sheath flow, SAXS-WAXS beamline of the Australian Synchrotron; molecular mass estimated from the Porod volume; conditions in Supplementary Table 3.

B1: soluble C-terminal domain of human zinc transporter 1 (hZnT1-CTD) (domain or fragment, UniProt Q9Y6M5 342-507, looked up)
chain: ILLQTVPKQIDIRNLIKELRNVEGVEEVHELHVWQLAGSRIIATAHIKCEDPTSYMEVAKTIKDVFHNHGIHATTIQPEFASVGSKSSVVPCELACRTQCALKQCCGTLPQAPSGKDAEKTPAVSISCLELSNNLEKKPRRTKAENIPAVVIEIKNMPNKQPESSL
notes: human zinc transporter 1 (ZnT1, SLC30A1), soluble C-terminal domain, residues 342-507; Cloned into pET24a with a C-terminal His8-tag; no removal of the tag is described
As for B1, the “stoichiometry N” value was 2.
